Measurements: PMC2639635, “The Structure of Phosphorylase Kinase Holoenzyme at 9.9 Å Resolution and Location of the Catalytic Subunit and the Substrate Glycogen Phosphorylase” (Structure(London, England:1993), 2009)

T1: phosphorylase kinase α subunit (rabbit (endogenous in skeletal muscle), UniProt P18688 1-1237)
T1 construct: phosphorylase kinase α subunit, regulatory, skeletal muscle; printed as 138 kDa, 1237 amino acids; In the aged preparation used for Superdex 200 gel filtration the α subunit may have been partly proteolysed; source: purified from rabbit fast-twitch skeletal muscle as part of the PhK holoenzyme
T1 sequence (looked up): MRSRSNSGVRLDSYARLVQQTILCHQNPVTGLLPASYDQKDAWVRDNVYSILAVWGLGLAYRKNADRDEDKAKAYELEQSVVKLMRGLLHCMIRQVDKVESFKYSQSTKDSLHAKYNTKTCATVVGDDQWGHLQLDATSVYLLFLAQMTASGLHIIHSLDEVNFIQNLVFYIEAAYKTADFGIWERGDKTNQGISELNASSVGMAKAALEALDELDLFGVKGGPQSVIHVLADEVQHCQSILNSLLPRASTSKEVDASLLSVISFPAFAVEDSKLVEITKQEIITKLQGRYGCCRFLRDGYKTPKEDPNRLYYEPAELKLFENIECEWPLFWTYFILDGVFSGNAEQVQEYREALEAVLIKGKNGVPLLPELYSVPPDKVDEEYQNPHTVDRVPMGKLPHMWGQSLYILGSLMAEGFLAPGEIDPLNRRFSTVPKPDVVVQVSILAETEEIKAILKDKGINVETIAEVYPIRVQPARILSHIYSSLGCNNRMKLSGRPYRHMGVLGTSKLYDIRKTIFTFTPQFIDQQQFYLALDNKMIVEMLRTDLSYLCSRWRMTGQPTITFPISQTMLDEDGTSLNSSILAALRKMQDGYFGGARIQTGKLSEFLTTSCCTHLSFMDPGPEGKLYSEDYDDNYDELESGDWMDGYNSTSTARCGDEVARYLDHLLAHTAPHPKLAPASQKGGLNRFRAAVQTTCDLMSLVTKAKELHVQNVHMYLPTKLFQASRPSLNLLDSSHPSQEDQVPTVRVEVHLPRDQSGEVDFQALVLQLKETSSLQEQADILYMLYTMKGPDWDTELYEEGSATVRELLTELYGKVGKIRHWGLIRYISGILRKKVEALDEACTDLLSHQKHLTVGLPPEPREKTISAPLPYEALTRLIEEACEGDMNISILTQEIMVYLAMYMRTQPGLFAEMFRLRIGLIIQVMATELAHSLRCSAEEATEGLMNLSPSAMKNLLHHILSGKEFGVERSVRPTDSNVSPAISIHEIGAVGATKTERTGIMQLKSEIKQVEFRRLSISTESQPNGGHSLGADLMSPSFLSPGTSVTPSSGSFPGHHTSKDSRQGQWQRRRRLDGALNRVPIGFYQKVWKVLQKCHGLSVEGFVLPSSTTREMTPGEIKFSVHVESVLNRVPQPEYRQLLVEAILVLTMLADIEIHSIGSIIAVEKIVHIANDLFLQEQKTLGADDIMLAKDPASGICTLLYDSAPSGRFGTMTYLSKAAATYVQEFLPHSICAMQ

B1: phosphorylase kinase β subunit (natural protein, rabbit (endogenous in skeletal muscle), UniProt P12798 1-1093, looked up)
chain: MAGATGLMAEVSWKVLERRARTKRSGSVYEPLKSINLPRPDNETLWDKLDYYYKIVKSTLLLYQSPTTGLFPTKTCGGDQTAKIHDSLYCAAGAWALALAYRRIDDDKGRTHELEHSAIKCMRGILYCYMRQADKVQQFKQDPRPTTCLHSLFNVHTGDELLSYEEYGHLQINAVSLYLLYLVEMISSGLQIIYNTDEVSFIQNLVFCVERVYRVPDFGVWERGSKYNNGSTELHSSSVGLAKAALEAINGFNLFGNQGCSWSVIFVDLDAHNRNRQTLCSLLPRESRSHNTDAALLPCISYPAFALDDDVLYNQTLDKVIRKLKGKYGFKRFLRDGYRTSLEDPKRRYYKPAEIKLFDGIECEFPIFFLYMMIDGVFRGNPKQVKEYQDLLTPVLHQTTEGYPVVPKYYYVPADFVEYEKRNPGSQKRFPSNCGRDGKLFLWGQALYIIAKLLADELISPKDIDPVQRYVPLQNQRNVSMRYSNQGPLENDLVVHVALVAESQRLQVFLNTYGIQTQTPQQVEPIQIWPQQELVKAYFHLGINEKLGLSGRPDRPIGCLGTSKIYRILGKTVVCYPIIFDLSDFYMSQDVLLLIDDIKNALQFIKQYWKMHGRPLFLVLIREDNIRGSRFNPMLDMLAALKNGMIGGVKVHVDRLQTLISGAVVEQLDFLRISDTEELPEFKSFEELEPPKHSKVKRQSSTSNAPELEQQPEVSVTEWRNKPTHEILQKLNDCSCLASQTILLGILLKREGPNFITQEGTVSDHIERLYRRAGSKKLWLAVRYGAAFTQKFSSSIAPHITTFLVHGKQVTLGAFGHEEEVISNPLSPRVIKNIIYYKCNTHDEREAVIQQELVIHIGWIISNNPELFSGMLKIRIGWIIHAMEYELQIRSGDKPAKDLYQLSPSEVKQLLLDILQPQQNGRCWLNKRQIDGSLNRTPTGFYDRVWQILERTPNGIIVAGKHLPQQPTLSDMTMYEMNFSLLVEDMLGNIDQPKYRQIVVELLMVVSIVLERNPELEFQDKVDLDKLVKEAFHEFQKDESRLKEIEKQDDMTSFYNTPPLGKRGTCSYLTKVVMNLLLEGEVKPSNEDSCLVS
notes: phosphorylase kinase β subunit, regulatory; printed as 125 kDa, 1092 amino acids; source: purified from rabbit fast-twitch skeletal muscle as part of the PhK holoenzyme
B2: phosphorylase kinase γ subunit (catalytic subunit) (natural protein)
chain: not shown
notes: phosphorylase kinase γ subunit, catalytic; also called γ catalytic subunit; γ kinase subunit; source: purified from rabbit fast-twitch skeletal muscle as part of the PhK holoenzyme

Legend:
Settings in all cases: both partners purified
[1] = target: T1, phosphorylase kinase α subunit; experiment: SEC; analytical Superdex 200 gel filtration of the PhK preparation several months after purification; fractions analysed by SDS-PAGE with Coomassie staining; subunits co-purified as the native complex
[2] = target: B1; experiment: cryo-EM structure; PhK holoenzyme alone, subunits co-purified as the native complex from muscle; 100 mM NaCl, 0.3 mM CaCl2, 5 mM MgCl2, 50 mM HEPES pH 8.2; single-particle reconstruction at 9.9 Å; PhKγt (PDB 2PHK) fitted as a rigid body
[3] = target: T2, phosphorylase kinase δ subunit (intrinsic calmodulin) (rabbit (endogenous in skeletal muscle), UniProt P62160 1-149); experiment: as above
T2 construct: phosphorylase kinase δ subunit, the intrinsic calmodulin; printed as 16.7 kDa, 148 amino acids; also called δ-calmodulin subunit; calmodulin-δ-subunit; source: purified from rabbit fast-twitch skeletal muscle as part of the PhK holoenzyme

[4] = target: T1, phosphorylase kinase α subunit; experiment: as above

binding result [1]	binding result [2]	binding result [3]	binding result [4]	Binder
binds				B1
	binds	binds	binds	B2
